5 substances from patent publication US20240059766A1 can be followed below.

The target in assay [1] is Tau217-234 phospho-peptide (pT217/pT220/pT231) (human). As to the kind of experiment: BLI. On the technique in general: Biolayer interferometry detects binding as a change in optical thickness at a sensor tip.
Assay [2] addresses Tau225-240 phospho-peptide (pT231) (human). As to the kind of experiment: BLI.
For assay [3], the target named is Tau204-222 phospho-peptide (pT212/pS214/pT217) (human). In words: one point ELISA. In general terms: In an ELISA, binding on a coated surface is turned into a signal by an enzyme label.
Assay [4] concerns the target Tau204-222 phospho-peptide (pT212) (human). As to the kind of experiment: one point ELISA.
Assay [5] deals with Tau204-222 phospho-peptide (pS214/pT217) (human). As to the kind of experiment: one point ELISA.
The target in assay [6] is Peptide 5 (tPeptide 5) (pT212/pS214/pT217) (human). In words: one point ELISA.
Assay [7] concerns the target Tau204-222 phospho-peptide (pT212/pS214) (human). As to the kind of experiment: one point ELISA.
In assay [8] the target is Tau204-222 phospho-peptide (pS214) (human). As to the kind of experiment: one point ELISA.
Assay [9] deals with Tau204-222 phospho-peptide (pT212/pT217) (human). As to the kind of experiment: one point ELISA.
A further assay addresses wtTau C2 (human). As to the kind of experiment: one point ELISA.
Assay [10] concerns the target Tau204-222 phospho-peptide (pT217) (human). In words: one point ELISA.
The target in assay [11] is AT8 peptide (amino acids 195-215 of tau) (human). As to the kind of experiment: BLI (Octet), peptide on streptavidin tip.
The target of assay [12] is Tau191-214 phospho-peptide (pS199/pS202) (human). In words: one point ELISA.
The target of assay [13] is SCBio-4PEG-Peptide (Tau191-214) pS199-old (human). In words: one point ELISA.
The target of assay [14] is Tau191-214 phospho-peptide (pS202/pT205) (human). As to the kind of experiment: one point ELISA.
The target of assay [15] is Tau191-214 phospho-peptide (pS199/pS202/pT205) (human). In words: one point ELISA.
Assay [16] addresses Tau191-214 phospho-peptide (pS202) (human). As to the kind of experiment: one point ELISA.
The target of assay [17] is Tau191-214 phospho-peptide (pS199) (human). As to the kind of experiment: one point ELISA.
Assay [18] concerns the target Tau191-214 phospho-peptide (pS199/pT205) (human). As to the kind of experiment: one point ELISA.
The target of assay [19] is Tau191-214 phospho-peptide (pT205) (human). As to the kind of experiment: one point ELISA.
Chain of Tau191-214 phospho-peptide (pT205) (human) (peptide, as listed by the source): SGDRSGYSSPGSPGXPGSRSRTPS

Chain of SCBio-4PEG-Peptide (Tau191-214) pS199-old (human) (peptide, as listed by the source): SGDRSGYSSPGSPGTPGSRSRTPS
Chain of Tau191-214 phospho-peptide (pS199) (human) (peptide, as listed by the source): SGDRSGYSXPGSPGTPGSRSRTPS
Chain of Tau191-214 phospho-peptide (pS202) (human) (peptide, as listed by the source): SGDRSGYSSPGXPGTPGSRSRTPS
Chain of AT8 peptide (amino acids 195-215 of tau) (human) (peptide, as listed by the source): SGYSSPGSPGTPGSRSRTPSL

AT180 (antibody): the figures for the Kd in assay [1] and in [2] were 5 pM and 6 pM, respectively.

PT3-hIgG1 (antibody): the OD450 was determined as 3.17 OD450 nm in assay [3]; 3.16 OD450 nm in assay [4]; 3.13 OD450 nm in assay [5]; 2.81 OD450 nm in assay [6]; 3.14 OD450 nm in assay [7]; 3.14 OD450 nm in assay [8]. Also, the OD450 came out at 3.16 OD450 nm in [9], 1.2 OD450 nm with wtTau C2 (human) and 3.13 OD450 nm in assay [10].

In the case of “anti-tau antibody AT8 (ThermoFisher, Waltham, MA)”, the Kd (commonly the constant that tells how readily two partners part at equilibrium) in assay [11] was found to be 309 pM. The OD450 was 2.39 OD450 nm in assay [12]; 0.056 OD450 nm in assay [13]; 2.94 OD450 nm in [14]; 3.07 OD450 nm in assay [15]; 0.058 OD450 nm in assay [16]; 0.056 OD450 nm in assay [17]. Moreover, the OD450 in [18] was determined as 0.139 OD450 nm; in assay [19] it was 0.065 OD450 nm.

On to “anti-tau antibody AT100 (ThermoFisher, Waltham, MA)”, for which the OD450 in assay [3] is 0.187 OD450 nm; in [4], 0.069 OD450 nm; in assay [5], 0.067 OD450 nm; in assay [7] it was 0.071 OD450 nm; in [8], 0.065 OD450 nm; in [9], 0.069 OD450 nm. This substance had an OD450 in assay [10] of 0.068 OD450 nm.

As for hIgG1 isotype control (antibody), the OD450 is 0.053 OD450 nm in assay [3]; 0.062 OD450 nm in assay [12]; 0.06 OD450 nm in [4]; 0.059 OD450 nm in assay [5]; 0.06 OD450 nm in assay [13]; 0.141 OD450 nm in [6]. The OD450 in [14] was determined as 0.249 OD450 nm; in assay [15] it was 0.245 OD450 nm; in [16], 0.055 OD450 nm; in assay [7] it was 0.059 OD450 nm; in [8], 0.061 OD450 nm; in [17] it was 0.058 OD450 nm. In addition, the OD450 in assay [18] worked out at 0.09 OD450 nm; in assay [9], 0.057 OD450 nm; in the assay with wtTau C2 (human), 0.124 OD450 nm; in assay [19] it was 0.054 OD450 nm; in assay [10], 0.083 OD450 nm.
